# Where two headings read alike, the source gives them in different places.
# Assays:
# [1] = molecular target: T1, integrin α5β1 (UniProt P08648 42-1049; P05556 21-798); test: cell-based or functional assay
# [2] = molecular target: T2, integrin αvβ3 (UniProt P06756 31-1048; P05106 27-788); test: cell-based or functional assay
# [3] = molecular target: T3, integrin αIIbβ3 (UniProt P08514 32-1039; P05106 27-788); test: cell-based or functional assay
# [4] = molecular target: T2, integrin αvβ3; test: cell adhesion inhibition assay (Table 5)
# Method: (§1) Briefly, 96-well Immulon-2 microtiter plates (Costar, Corning, N.Y.) were coated with 100 μl of phosphate-buffered saline (PBS: 10 mM phosphate buffer, 0.15M NaCl, pH 7.4) containing substrates at a concentration of 50-500 nM, and incubated overnight at 4° C. […] Non-specific protein binding sites were blocked by incubating each well with 200 μl of heat-denatured 1% bovine serum albumin (BSA, Calbiochem) at room temperature (25° C.) for 1.5 hr. Afterwards, the blocking heat-denatured BSA was discarded and each well was washed twice with 200 μl of PBS.
# (§2) Chinese hamster ovary (CHO) cells expressing αvβ3 (CHO-αvβ3) and α5β1 (CHO-α5β1) integrins were maintained in 100 μl of Dulbecco's Modified Eagle's Medium (DMEM) medium. Both CHO-αvβ3 and CHO-α5β1 were kind gifts of Dr. Y. Takada (Scripps Research Institute) established by stable transfection with a neomycin-resistant gene. CHO cells growing in log phase were detached by trypsinization and used in the assay at 3×10⁵ cells/ml. FNIII 9-10, FNIII 10 and variants thereof were added to the cultured cells at the concentrations of 0.001-500 μM and incubated at 37° C. in 5% CO₂ for 15 minutes. […]
# (§3) Bound cells were quantified by crystal violet staining. […] The resulting absorbance was read at 600 nm and the readings were correlated with the number of adhering cells.
# [5] = molecular target: T3, integrin αIIbβ3; test: cell adhesion inhibition assay (Table 5)
# Method: as §1, §2, §3
# [6] = molecular target: T1, integrin α5β1; test: cell-based or functional assay; remark: listed apart in the source
# [7] = molecular target: T2, integrin αvβ3; test: cell-based or functional assay; remark: listed apart in the source
# [8] = molecular target: T3, integrin αIIbβ3; test: cell-based or functional assay; remark: listed apart in the source
# [9] = molecular target: T3, integrin αIIbβ3; test: cell adhesion inhibition assay (Table 4)
# Method: as §1
# (§4) Chinese hamster ovary (CHO) cells expressing αvβ3 (CHO-αvβ3) and α5β1 (CHO-α5β1) integrins were maintained in 100 μl of Dulbecco's Modified Eagle's Medium (DMEM) medium. Both CHO-αvβ3 and CHO-α5β1 were kind gifts of Dr. Y. Takada (Scripps Research Institute) established by stable transfection with a neomycin-resistant gene. CHO cells growing in log phase were detached by trypsinization and used in the assay at 3×10⁵ cells/ml. FNIII 9-10, FNIII 10 and variants thereof were added to the cultured cells at the concentrations of 0.001-500 μM and incubated at 37° C. in 5% CO₂ for 15 minutes. The treated cells were then added into the coated plate and incubated at 37° C. in 5% CO₂ for 1 hour. The incubation solution was then discarded and non-adhered cells were removed by washing twice with 200 μl PBS.
# (§5) Bound cells were quantified by crystal violet staining. Briefly, the well was fixed with 100 μl of 10% formalin for 10 minutes and dried. Fifty microliters of 0.05% crystal violet were then added into the well at room temperature for 20 minutes. Each well was washed with 200 μl of distilled water four times and dried. Colorization was carried out by adding 150 μl of colorizing solution (50% alcohol and 0.1% acetic acid). The resulting absorbance was read at 600 nm and the readings were correlated with the number of adhering cells.
# [10] = molecular target: T2, integrin αvβ3; test: cell adhesion inhibition assay (Table 4)
# Method: as §1, §4, §5
# T1 sequence (P08648 42-1049, chain 1 of 2): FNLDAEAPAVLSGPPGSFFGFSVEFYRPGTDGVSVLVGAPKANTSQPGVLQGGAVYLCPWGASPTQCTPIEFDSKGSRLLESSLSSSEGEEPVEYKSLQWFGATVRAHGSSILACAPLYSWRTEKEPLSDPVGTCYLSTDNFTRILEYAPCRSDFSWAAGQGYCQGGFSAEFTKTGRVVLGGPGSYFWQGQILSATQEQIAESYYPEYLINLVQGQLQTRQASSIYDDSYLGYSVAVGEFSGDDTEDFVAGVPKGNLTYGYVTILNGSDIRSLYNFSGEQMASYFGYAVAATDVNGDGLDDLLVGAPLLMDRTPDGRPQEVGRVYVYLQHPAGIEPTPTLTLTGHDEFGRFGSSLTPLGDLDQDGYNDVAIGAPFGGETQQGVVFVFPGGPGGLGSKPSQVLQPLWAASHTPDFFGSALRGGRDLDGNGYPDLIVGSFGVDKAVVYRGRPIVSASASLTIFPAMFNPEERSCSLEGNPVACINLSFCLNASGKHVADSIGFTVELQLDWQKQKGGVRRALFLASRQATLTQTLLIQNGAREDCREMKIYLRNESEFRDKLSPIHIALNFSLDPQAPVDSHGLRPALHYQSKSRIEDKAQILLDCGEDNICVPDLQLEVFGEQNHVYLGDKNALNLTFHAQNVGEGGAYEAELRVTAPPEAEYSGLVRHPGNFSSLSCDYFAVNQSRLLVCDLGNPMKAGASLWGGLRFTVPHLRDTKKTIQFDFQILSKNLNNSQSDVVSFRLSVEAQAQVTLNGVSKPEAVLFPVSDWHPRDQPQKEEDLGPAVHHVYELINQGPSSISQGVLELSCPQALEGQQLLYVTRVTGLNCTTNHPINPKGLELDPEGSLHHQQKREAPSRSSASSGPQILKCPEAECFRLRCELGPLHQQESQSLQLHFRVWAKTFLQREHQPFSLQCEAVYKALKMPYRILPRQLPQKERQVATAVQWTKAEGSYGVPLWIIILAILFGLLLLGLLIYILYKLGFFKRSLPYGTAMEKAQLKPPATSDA
# T1 sequence (P05556 21-798, chain 2 of 2): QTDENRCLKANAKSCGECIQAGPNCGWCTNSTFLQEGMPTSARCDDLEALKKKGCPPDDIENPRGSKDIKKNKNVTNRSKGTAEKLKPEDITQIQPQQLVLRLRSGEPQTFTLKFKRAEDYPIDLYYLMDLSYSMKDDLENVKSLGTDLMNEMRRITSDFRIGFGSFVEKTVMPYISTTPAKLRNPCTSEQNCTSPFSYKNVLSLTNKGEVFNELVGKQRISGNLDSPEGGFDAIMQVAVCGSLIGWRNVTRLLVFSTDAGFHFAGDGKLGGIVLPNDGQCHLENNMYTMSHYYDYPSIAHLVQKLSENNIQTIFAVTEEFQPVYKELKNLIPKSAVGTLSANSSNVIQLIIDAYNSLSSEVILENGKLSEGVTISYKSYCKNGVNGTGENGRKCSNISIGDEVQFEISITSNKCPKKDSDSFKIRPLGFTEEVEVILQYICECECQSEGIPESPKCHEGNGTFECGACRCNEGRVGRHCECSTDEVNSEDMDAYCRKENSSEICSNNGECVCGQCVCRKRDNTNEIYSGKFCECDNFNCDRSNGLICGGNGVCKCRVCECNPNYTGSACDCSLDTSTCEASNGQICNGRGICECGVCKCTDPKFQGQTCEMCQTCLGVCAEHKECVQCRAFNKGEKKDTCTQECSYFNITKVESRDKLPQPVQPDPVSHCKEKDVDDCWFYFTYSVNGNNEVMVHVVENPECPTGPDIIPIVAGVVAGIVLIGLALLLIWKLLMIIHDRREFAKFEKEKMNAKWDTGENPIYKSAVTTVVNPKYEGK
# T3 sequence (P08514 32-1039, chain 1 of 2): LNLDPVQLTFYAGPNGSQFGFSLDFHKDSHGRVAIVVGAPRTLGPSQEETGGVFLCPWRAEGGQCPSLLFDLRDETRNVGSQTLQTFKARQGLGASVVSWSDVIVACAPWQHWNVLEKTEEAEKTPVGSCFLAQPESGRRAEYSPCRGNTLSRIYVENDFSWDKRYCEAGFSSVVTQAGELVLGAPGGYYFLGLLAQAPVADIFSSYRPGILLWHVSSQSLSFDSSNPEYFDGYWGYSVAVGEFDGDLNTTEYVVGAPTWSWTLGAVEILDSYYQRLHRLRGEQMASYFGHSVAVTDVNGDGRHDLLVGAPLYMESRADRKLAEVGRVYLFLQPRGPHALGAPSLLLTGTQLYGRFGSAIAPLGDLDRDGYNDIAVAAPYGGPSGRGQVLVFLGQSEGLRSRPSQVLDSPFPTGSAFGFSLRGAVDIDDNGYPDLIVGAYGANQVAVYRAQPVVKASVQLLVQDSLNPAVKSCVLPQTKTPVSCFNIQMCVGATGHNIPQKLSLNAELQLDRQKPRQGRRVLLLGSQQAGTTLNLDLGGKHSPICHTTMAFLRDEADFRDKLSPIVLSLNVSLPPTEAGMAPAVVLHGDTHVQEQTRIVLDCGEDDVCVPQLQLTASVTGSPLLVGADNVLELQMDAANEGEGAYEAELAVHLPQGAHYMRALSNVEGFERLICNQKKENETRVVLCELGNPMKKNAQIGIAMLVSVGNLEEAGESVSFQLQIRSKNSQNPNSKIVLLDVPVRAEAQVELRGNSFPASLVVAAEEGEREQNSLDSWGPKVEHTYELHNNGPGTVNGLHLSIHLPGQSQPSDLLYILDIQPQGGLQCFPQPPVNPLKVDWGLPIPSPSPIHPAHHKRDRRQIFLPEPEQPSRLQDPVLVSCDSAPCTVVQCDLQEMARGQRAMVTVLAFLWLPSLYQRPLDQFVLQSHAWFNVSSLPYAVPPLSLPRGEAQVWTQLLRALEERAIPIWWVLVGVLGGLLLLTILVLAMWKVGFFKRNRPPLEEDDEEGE
# T3 sequence (P05106 27-788, chain 2 of 2): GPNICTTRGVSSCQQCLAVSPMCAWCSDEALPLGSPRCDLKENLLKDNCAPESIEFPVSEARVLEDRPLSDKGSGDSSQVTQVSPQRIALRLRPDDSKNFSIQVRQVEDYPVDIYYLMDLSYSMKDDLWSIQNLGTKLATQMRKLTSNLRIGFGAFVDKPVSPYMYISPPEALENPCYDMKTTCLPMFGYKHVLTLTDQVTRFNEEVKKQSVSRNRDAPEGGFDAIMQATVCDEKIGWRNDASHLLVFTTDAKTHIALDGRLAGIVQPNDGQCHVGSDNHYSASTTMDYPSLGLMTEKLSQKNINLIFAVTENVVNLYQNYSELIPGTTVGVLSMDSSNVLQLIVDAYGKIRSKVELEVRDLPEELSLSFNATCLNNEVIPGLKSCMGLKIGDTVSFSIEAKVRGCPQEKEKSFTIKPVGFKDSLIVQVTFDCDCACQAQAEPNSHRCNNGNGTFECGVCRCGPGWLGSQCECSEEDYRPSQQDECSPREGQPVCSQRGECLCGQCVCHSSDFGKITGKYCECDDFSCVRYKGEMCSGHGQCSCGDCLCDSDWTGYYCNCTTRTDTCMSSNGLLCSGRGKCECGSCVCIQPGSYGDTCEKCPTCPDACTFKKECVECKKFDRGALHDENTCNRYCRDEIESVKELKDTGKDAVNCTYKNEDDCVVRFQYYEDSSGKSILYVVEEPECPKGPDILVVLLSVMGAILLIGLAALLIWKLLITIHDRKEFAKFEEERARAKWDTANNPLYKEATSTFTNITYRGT
# T2 sequence (P06756 31-1048, chain 1 of 2): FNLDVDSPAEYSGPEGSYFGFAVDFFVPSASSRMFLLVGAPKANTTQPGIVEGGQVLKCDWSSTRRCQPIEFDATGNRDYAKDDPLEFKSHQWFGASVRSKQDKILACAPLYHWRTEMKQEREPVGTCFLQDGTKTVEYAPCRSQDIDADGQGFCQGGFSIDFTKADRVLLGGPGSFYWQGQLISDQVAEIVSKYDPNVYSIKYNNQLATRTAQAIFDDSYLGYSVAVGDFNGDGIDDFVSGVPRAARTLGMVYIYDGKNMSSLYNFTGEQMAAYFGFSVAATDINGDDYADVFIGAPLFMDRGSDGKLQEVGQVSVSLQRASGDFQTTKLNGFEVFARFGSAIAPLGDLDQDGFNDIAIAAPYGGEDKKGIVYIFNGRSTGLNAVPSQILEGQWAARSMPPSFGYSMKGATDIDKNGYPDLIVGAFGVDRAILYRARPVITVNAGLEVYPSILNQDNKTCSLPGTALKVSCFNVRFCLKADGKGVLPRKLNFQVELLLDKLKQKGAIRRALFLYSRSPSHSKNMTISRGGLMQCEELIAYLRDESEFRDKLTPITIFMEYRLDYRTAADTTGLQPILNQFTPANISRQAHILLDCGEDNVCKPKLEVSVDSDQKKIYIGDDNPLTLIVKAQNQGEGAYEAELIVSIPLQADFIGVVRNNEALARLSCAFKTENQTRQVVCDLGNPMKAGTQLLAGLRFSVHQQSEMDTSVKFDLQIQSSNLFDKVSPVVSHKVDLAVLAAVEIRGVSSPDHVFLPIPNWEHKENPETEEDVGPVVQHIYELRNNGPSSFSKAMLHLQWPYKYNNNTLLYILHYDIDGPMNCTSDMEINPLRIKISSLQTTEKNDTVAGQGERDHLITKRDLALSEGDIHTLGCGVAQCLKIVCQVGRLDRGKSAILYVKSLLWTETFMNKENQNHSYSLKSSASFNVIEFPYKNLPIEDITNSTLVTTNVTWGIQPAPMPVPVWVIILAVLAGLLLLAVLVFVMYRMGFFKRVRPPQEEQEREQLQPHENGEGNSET
# T2 sequence (P05106 27-788, chain 2 of 2): as the sequence (P05106 27-788, chain 2 of 2) above
Binder,"IC50, cell adhesion assay [1] [nM]","IC50, cell adhesion assay [2] [µM]","percentage of inhibition, cell adhesion assay [2] [%]","IC50, cell adhesion assay [3] [µM]","IC50, inhibition of ADP-induced platelet aggregation [3] [µM]","percentage of inhibition, cell adhesion assay [3] [%]",binding result [4],binding result [5],"IC50, cell adhesion assay [6] [µM]","percentage of inhibition, cell adhesion assay [6] [%]","IC50, cell adhesion assay [7] [nM]","IC50, cell adhesion assay [8] [µM]","IC50, inhibition of ADP-induced platelet aggregation [8] [µM]","percentage of inhibition, ADP-induced platelet aggregation [8] [%]","percentage of inhibition, cell adhesion assay [8] [%]",binding result [9],fold increase of binding affinity against SEQ ID NO:48 [10] [fold]
"Wild type FNIII 9-10 (SEQ ID NO: 4) (ligand, exact N-terminus uncertain; also called Wild-type human FN III 9-10; Control) not shown",245,> 3.12,33.2,> 4.8,~20,0,no binding (tested: >3119 nM),no binding (tested: >4798 nM),,,,,,,,,
"Control FNIII 10 mutant (SEQ ID NO: 50, VTPRGDWNEGSK) (designed binder, exact N-terminus uncertain; also called FNIII 10 variant) HHHHHHVSDVPRDLEVVAATPTSLLISWDAPAVTVRYYRITYGETGGNSPVQEFTVPGSKSTATISGLKPGVDYTITVYAVTPRGDWNEGSKPISINYRT",,,,,,,,,> 4.51,32.5,908,> 9.03,> 6.45,14,0,no binding (tested: >9027 nM),
"Wild type FNIII 10 (SEQ ID NO: 2, …) (ligand, also called FNIII 10 wild type; human fibronectin type III domain module 10) not shown",,,,,,,,,> 4.59,39,4580,> 9.18,~45,,0,no binding (tested: >9180 nM),
"FNIII 10 C-X7-C (SEQ ID NO: 6, VCPRGDMPDCSK) (designed binder) HHHHHHVSDVPRDLEVVAATPTSLLISWDAPAVTVRYYRITYGETGGNSPVQEFTVPGSKSTATISGLKPGVDYTITVYAVCPRGDMPDCSKPISINYRT",,,,,,,,,> 73.2,42,93,> 62.1,~62,,19,no binding (tested: >62124 nM),7
"FNIII 10 C-X7-C (SEQ ID NO: 10, VCARGDNPDCSK) (designed binder) HHHHHHVSDVPRDLEVVAATPTSLLISWDAPAVTVRYYRITYGETGGNSPVQEFTVPGSKSTATISGLKPGVDYTITVYAVCARGDNPDCSKPISINYRT",,,,,,,,,> 4.55,0,432,> 4.55,> 25.5,2,0,no binding (tested: >4546 nM),
"FNIII 10 variant (SEQ ID NO: 48, VTPRGDMPDSSK) (designed binder, also called FNIII 10 (PRGDMPD) protein; FNIII 10 PRGDMPD variant) HHHHHHVSDVPRDLEVVAATPTSLLISWDAPAVTVRYYRITYGETGGNSPVQEFTVPGSKSTATISGLKPGVDYTITVYAVTPRGDMPDSSKPISINYRT",,,,,,,,,> 6.8,31.7,645,> 9.07,> 22.2,4,0,no binding (tested: >9073 nM),
"FNIII 10 C-X7-C (SEQ ID NO: 8, VCPRGDWNECSK) (designed binder, Engineered intradomain disulfide bond Cys1491-Cys1499; exact N-terminus uncertain) HHHHHHVSDVPRDLEVVAATPTSLLISWDAPAVTVRYYRITYGETGGNSPVQEFTVPGSKSTATISGLKPGVDYTITVYAVCPRGDWNECSKPISINYRT",,,,,,,,,> 4.49,48,418,> 4.49,~10,,0,no binding (tested: >4494 nM),
